The values that follow come from patent US10654893B2, “Self-assembling peptide compositions” (3-D MATRIX, LTD., priority 2014, dated 2020).

A short description of data set [1]: Rheological properties at selected ionic strengths (DHR-1, 20 mm plates). In kind it is physicochemical. The text has this: FIGS. 27-29 show rheological properties measured with a rheometer (DHR-1, TA Instruments) with 20 mm plates when ion strengths are slightly lower than the critical ion strengths. Ion strengths of RADA16 (SEQ ID NO:1), KLD12 (SEQ ID NO:2) and IEIK13 (SEQ ID NO:3) were 0.7 M, 0.2 M and 0.02M, respectively for the measurements. Rheological properties of RADA16 (SEQ ID NO:1), KLD12 (SEQ ID NO:2) and IEIK13 (SEQ ID NO:3) compositions were higher after adjusting their ionic strength levels with NaCl to 0.7 M (RADA16 (SEQ ID NO:1)), 0.2 M (KLD12 (SEQ ID NO:2)) or 0.02 M (IEIK13 (SEQ ID NO:3)).
Rheological properties of peptide compositions at selected ionic strengths were measured using a rheometer (DHR-1, TA Instruments) with 20 mm plates. […] Results are shown in FIG. 30 for RADA16 (SEQ ID NO:1) and in FIG. 31 for IEIK13 (SEQ ID NO:3).
Viscosities of peptide compositions at selected ionic strength levels were evaluated. […] Viscosities of 1% IEIK13 (SEQ ID NO:3) compositions were evaluated using a rheometer (DHR-1, TA Instruments) with 20 mm plates. The results are shown in FIGS. 32A and 32B for IEIK13 (SEQ ID NO:3).

Data set [2] in a line: Rheological properties before and after DMEM treatment. The data set is classed as physicochemical. As for the experimental part: Effects of Dulbecco's modified Eagle's medium (DMEM) (pH 7.4) on rheological properties of IEIK13 (SEQ ID NO:3), KLD12 (SEQ ID NO:2), and RADA16 (SEQ ID NO:1) compositions were evaluated using a rheometer (AR500, TA Instruments) with 40 mm plates. DMEM is a cell culture medium that contains 6.4 g/L of NaCl, 3.4 g/L NaHCO3 (sodium bicarbonate), minor amounts of other salts, various amino acids, and 4.5 g/L of glucose. The pH of DMEM is 7.2±0.2 and the osmolality is 335±30 mOsm/Kg H2O. DMEM is close to human physiological fluids, for example, blood.
Before being mixed with the DMEM solution, 1% peptide compositions were kept in 4° C. for at least 48 hours. To perform experiments, 1 mL of peptide composition was gently pipetted and placed on the plate of the rheometer. 2 mL of the DMEM solution was gently added around the peptide composition. The peptide composition was treated with the DMEM for two minutes, then medium was removed, and the plates were placed at a measuring geometry gap at around 450 μm. Measurements were performed at 37° C. after 2 min of relaxation. Frequency tests were performed from 1 rad/s to 100 rad/s at 1 Pa of oscillation stress.
Using a DHR-1 rheometer (TA Instruments), rheological properties of peptide compositions at selected concentrations were measured before and after the DMEM treatment. Frequency sweep tests were performed from 1 rad/sec to 10 rad/sec at 1 Pa and the storage moduli in the graphs were at 1 rad/sec. […] Results are shown in FIGS. 22A and 22B for RADA16 (SEQ ID NO:1) and FIGS. 23A and 23B for IEIK13 (SEQ ID NO:3), respectively.
Using a DHR-1 rheometer (TA Instruments), rheological properties of peptide compositions at selected ion strengths were evaluated 10 mins after the DMEM treatment. Frequency sweep tests were performed from 1 rad/sec to 10 rad/sec at 1 Pa and the storage modulus at 1 rad/sec was selected for data. […] At 0.9 M or higher ionic strengths of NaCl, RADA16 (SEQ ID NO:1) compositions became cloudy.

A short description of data set [3]: pH of reference peptide compositions in water. The data set is classed as physicochemical. As to conditions: reference composition in water. The text has this:
Table 2, below, presents pH concentrations observed for reference compositions in which the indicated peptide is solubilized in water at the indicated concentration.

Data set [4] is described as follows: Mixing of RADA16 with DMEM and centrifugation. The data set is classed as physicochemical. As for the experimental part:
When the mixture was centrifuged at 2500 rpm for 5 min, phase separation of cloudy RADA16 (SEQ ID NO:1) precipitated from the mixture. In this case, the peptide assemblies (i.e. initially were formed via hydrophobic interactions) were likely broken down during the mixing process. Attractive charge-charge interactions were dominant over hydrophobic interactions, which induce formation of random intra- and inter-molecular aggregates. The phase separation is illustrated in FIG. 7.

The nature of data set [5]: Time sweep test of gelation after adding DMEM or saline buffer. In kind it is physicochemical. As to the method:
FIG. 25 includes 1.5% IEIK13 (SEQ ID NO:3) data at pH 2.3, 2.6, 2.9 and 3.2. Time sweep tests were performed at 1 rad/sec and at 1 Pa with 20 mm plates and 500 μm gap distance. During time sweep tests, DMEM was added into the chamber surrounding the measuring plates to soak the peptides at time=0.
Time sweep tests were performed at 1 rad/sec and at 1 Pa with 20 mm plates and 500 μm gap distance. During time sweep tests, the saline buffer was added into the chamber surrounding the measuring plates to soak the peptides at time=0.

Data set [6] relates to C57 BL/6 Mouse Mesenchymal Stem Cells (mMSCs). The data set can be described thus: Cell viability (cytotoxicity) assay. In kind it is cell-based. As for the experimental part: A cell viability (cytotoxicity) assay was performed to measure the viability of C57 BL/6 Mouse Mesenchymal Stem Cells (mMSCs) with IEIK13 (SEQ ID NO:3), KLD12 (SEQ ID NO:2) and RADA16 (SEQ ID NO:1) compositions as described herein. mMSCs are a frequently used cell line in hydrogel tissue culture systems. […] The final concentration of sucrose was 10%. Cells were washed and re-suspended in 10% sucrose to a final concentration of 5 million cells/ml. Cells were centrifuged and the supernatant was removed. The cells were re-suspended in peptide compositions with 10% sucrose. The protocol was then followed for plating drop cultures and subsequent isolation as described in the PuraMatrix® Guidelines for Use (BD/Corning website). Results are shown in FIGS. 14-16 for RADA16 (SEQ ID NO:1), IEIK13 (SEQ ID NO:3), and KLD12 (SEQ ID NO:2), respectively.

Turning to “Arg-Ala-Asp-Ala-Arg-Ala-Asp-Ala-Arg-Ala-Asp-Ala-Arg-Ala-Asp-Ala [RADA16]”, the “Rheological properties as a function of ionic strength” value in data set [1] (1% compositions, NaCl, decreased at higher ionic strength) was “increased with ionic strength adjustment up to 0.7 M”. For the same substance, in data set [1] (NaCl 0.7 M (RADA16), 0.2 M (KLD12), 0.02 M (IEIK13), 1%), the “Rheological properties after adjusting ionic strength with NaCl” value is given as “higher”. Also, the “Rheological properties with NaCl versus KCl and CaCl2” value in data set [1] (RADA16 compositions with salts) is listed as “slightly higher”. Further, the Appearance of composition entry in data set [2] (0.9 M or higher ionic strengths of NaCl) is on record as “became cloudy”. Further, in data set [2] (10 mins after DMEM treatment, NaCl, decreased with 0.7 M or higher), the “Rheological properties as a function of ionic strength after DMEM treatment” value is listed as “increased with ionic strength adjustment up to 0.7 M”. Besides, the “Change of rheological properties with DMEM treatment” value in data set [2] (selected NaCl ionic strengths, RADA16 statement follows 0.9 M or higher NaCl (no gelation)) was “did not change with the DMEM treatment”. Further, the “Rheological properties with DMEM treatment and/or pH elevation” value in data set [2] (selected concentrations, storage moduli at 1 rad/sec, 1 Pa) is listed as “increased with the DMEM treatment and/or pH elevation”. Moreover, the pH in data set [3] (Concentration 0.5%) came to 2.7; in data set [3] (Concentration 1.0%), 2.5; in data set [3] (Concentration 1.5%) it was 2.5; in data set [3] (Concentration 2.0%) it was 2.5; in data set [3] (Concentration 2.5%) it was 2.5. The “Appearance after mixing with DMEM” value in data set [4] (0.5 mL of DMEM mixed with 0.5 mL of 2% RADA16) is “cloudy and runny emulsions”. Moreover, in data set [4] (centrifuged at 2500 rpm for 5 min), the “Phase behaviour after centrifugation of the DMEM mixture” value is listed as “precipitated”. Moreover, the “Gelation on exposure to saline buffer” value in data set [5] (saline buffer, 0.15 M NaCl) is reported as “no or negligible gelation”. The “Storage modulus response (gelation kinetics)” value in data set [5] (with pH adjustment, time sweep with DMEM (FIGS. 24 and 25)) is “immediate storage modulus increase”. Moreover, the “Time without storage modulus increase” value in data set [5] (without pH adjustment (pH 2.2), time sweep with DMEM (FIG. 24)) was determined as 13 s. Moreover, the “Cell viability at 0.5% versus 0.25%” value in data set [6] is “significantly higher than that at 0.25%”.
